From patent US20230057012A1 (SCHOLAR ROCK, published 2023)
Values belong to the binder of their own block, whether it stands above or below them.

Assays:
[1] = molecular target: T1, human LRRC33-proTGFβ1 complex (human, UniProt Q86YC3 19-650; P01137 30-390, limits assumed); test: SPR Biacore; Fab
T1 construct: Purified recombinant, biotinylated antigen complex; also called hLRRC33-proTGFβ1; LLC
Experimental: (§1) Surface plasmon resonance (SPR) was used to measure binding kinetics using a BIACORE® system. […] Experiments were carried out with eight types of LLCs, namely, hLTBP1-proTGFβ1, mLTBP1-proTGFβ1, hLTBP3-proTGFβ1, mLTBP3-proTGFβ1, hGARP-proTGFβ1, mGARP-proTGFβ1, hLRRC33-proTGFβ1 and mLRRC33-proTGFβ1.
(§2) A BIACORE® system was employed to determine the monovalent binding affinity and the kinetic parameters for antigen binding of test antibodies. The binding kinetics were evaluated by surface plasmon resonance using Biacore 8K (GE Healthcare). A Biotin CAP sensor chip was used to capture the biotinylated antigens. […] Multi-cycle kinetics was employed where each analyte concentration was injected in a separate cycle and the sensor chip surface was regenerated after each cycle. All the assays were carried out in freshly prepared 1× HBS-EP+ buffer (10 mM HEPES, 150 mM NaCl, 3 mM EDTA, 0.05% Tween20, pH 7.4). Data for all the analyte concentrations for each interaction were fit globally to a 1:1 binding model to obtain the kinetic parameters. The Sensorgram for 0 nM analyte concentration was used as reference.

[2] = molecular target: T2, murine LRRC33-proTGFβ1 complex (mouse; human, UniProt Q8BMT4 20-651, limits assumed); test: SPR Biacore; Fab
T2 construct: As for m5; also called mLRRC33-proTGFβ1; LLC
T2 sequence (Q8BMT4 20-651 limits assumed, chain 1 of 2): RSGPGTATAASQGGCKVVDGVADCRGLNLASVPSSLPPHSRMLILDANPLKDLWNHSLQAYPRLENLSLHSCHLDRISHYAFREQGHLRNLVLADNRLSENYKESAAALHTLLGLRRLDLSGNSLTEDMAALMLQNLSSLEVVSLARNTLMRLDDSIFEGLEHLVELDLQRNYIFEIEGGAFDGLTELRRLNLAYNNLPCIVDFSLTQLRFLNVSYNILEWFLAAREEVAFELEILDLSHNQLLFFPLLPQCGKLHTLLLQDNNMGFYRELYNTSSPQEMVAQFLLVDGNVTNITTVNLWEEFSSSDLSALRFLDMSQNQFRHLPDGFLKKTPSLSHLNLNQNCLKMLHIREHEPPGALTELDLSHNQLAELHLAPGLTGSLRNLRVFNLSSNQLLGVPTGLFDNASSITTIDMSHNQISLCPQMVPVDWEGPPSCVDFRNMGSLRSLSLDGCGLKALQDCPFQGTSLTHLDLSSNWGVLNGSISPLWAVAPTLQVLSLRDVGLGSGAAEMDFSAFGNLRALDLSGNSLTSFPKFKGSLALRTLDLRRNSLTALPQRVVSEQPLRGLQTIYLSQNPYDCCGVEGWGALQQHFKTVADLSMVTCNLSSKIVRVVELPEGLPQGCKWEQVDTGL
T2 sequence (chain, as listed by the source limits assumed, chain 2 of 2): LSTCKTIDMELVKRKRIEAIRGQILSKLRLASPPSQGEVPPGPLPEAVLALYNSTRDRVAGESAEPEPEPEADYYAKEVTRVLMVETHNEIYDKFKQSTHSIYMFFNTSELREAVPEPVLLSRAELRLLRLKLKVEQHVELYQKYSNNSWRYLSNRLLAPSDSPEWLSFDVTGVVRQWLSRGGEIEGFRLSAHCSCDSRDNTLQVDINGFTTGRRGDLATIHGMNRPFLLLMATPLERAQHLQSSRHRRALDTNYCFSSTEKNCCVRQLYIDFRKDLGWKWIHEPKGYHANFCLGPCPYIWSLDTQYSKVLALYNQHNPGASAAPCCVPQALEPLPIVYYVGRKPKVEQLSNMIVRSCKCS
Experimental: as §1, §2

[3] = molecular target: T3, human LTBP3-proTGFβ1 complex (human, UniProt Q9NS15 44-1303; P01137 30-390, limits assumed); test: ELISA, purified hIgG4 titrated from about 0.002 to 100 nM, readout RLU, panel hLTBP3-TGFb1
T3 construct: Purified recombinant, biotinylated antigen complex; also called hLTBP3-proTGFβ1; LLC

[4] = molecular target: T4, murine LTBP1-proTGFβ1 complex (mouse; human, UniProt Q8CG19 339-1712; P01137 30-390, limits assumed); test: ELISA, purified hIgG4 titrated from about 0.002 to 100 nM, readout RLU, panel mLTBP1-TGFb1
T4 construct: also called mLTBP1-proTGFβ1; LLC

[5] = molecular target: T5, human LTBP1-proTGFβ1 complex (human, UniProt Q14766 347-1721; P01137 30-390, limits assumed); test: ELISA, purified hIgG4 titrated from about 0.002 to 100 nM, readout RLU, panel hLTBP1-TGFb1
T5 construct: also called hLTBP1-proTGFβ1; large latent complex (LLC)
T5 sequence (Q14766 347-1721 limits assumed, chain 1 of 2): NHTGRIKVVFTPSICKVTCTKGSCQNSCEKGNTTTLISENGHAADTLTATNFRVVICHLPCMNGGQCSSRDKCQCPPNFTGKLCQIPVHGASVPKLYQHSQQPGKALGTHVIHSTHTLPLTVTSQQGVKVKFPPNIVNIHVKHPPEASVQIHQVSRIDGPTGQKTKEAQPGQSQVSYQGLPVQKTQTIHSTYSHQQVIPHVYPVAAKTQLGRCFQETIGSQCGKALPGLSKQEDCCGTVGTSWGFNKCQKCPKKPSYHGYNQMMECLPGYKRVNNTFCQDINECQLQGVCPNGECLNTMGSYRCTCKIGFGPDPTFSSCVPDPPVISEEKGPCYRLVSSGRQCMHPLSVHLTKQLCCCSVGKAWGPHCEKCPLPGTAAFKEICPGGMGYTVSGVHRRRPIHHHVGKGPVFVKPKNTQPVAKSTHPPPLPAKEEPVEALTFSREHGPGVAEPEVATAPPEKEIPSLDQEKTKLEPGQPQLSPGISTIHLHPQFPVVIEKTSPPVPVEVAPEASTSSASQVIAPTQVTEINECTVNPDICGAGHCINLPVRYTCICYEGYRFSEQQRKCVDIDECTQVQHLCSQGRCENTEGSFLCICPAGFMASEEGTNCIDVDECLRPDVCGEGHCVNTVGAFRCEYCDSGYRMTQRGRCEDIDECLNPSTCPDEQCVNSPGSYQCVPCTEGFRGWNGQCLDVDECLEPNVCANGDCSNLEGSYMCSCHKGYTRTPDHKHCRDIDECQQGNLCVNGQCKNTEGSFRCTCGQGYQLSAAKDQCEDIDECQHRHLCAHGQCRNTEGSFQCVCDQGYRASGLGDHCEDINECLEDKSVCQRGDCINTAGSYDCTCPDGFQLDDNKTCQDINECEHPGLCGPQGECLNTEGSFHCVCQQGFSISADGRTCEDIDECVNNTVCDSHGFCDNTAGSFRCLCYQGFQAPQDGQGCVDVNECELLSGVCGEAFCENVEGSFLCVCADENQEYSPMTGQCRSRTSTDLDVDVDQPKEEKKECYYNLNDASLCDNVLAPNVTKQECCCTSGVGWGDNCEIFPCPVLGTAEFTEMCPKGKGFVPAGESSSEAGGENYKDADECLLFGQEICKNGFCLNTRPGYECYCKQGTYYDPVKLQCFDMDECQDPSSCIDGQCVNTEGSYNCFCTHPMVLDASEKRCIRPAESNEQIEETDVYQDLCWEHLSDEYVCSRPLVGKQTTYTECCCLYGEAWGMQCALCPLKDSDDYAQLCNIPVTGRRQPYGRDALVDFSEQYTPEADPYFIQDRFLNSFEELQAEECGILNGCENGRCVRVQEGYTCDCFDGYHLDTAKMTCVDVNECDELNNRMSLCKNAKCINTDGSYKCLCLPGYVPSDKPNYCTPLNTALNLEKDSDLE
T5 sequence (P01137 30-390 limits assumed, chain 2 of 2): as the sequence (chain, as listed by the source limits assumed, chain 2 of 2) above

[6] = molecular target: T6, human GARP-proTGFβ1 complex (human, UniProt Q14392 18-627; P01137 30-390, limits assumed); test: ELISA, purified hIgG4 titrated from about 0.002 to 100 nM, readout RLU, panel hGARP-TGFb1
T6 construct: Purified recombinant, biotinylated antigen complex; also called hGARP-proTGFβ1; LLC
T6 sequence (Q14392 18-627 limits assumed, chain 1 of 2): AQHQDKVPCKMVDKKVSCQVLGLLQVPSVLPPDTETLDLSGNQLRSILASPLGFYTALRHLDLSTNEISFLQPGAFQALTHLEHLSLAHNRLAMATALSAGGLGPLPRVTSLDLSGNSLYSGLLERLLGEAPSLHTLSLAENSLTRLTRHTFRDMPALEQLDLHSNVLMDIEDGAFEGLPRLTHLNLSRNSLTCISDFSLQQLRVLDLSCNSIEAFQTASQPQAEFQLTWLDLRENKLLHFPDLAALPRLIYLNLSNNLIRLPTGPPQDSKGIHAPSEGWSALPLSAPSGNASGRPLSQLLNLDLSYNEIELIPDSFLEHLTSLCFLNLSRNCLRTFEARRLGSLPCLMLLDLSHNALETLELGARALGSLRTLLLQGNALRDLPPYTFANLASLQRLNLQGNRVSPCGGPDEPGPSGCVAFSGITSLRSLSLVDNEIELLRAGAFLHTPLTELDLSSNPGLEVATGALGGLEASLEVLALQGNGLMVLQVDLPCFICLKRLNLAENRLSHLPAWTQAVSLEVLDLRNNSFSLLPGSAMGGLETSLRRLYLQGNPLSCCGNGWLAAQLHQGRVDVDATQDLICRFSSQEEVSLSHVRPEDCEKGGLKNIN
T6 sequence (P01137 30-390 limits assumed, chain 2 of 2): as the sequence (chain, as listed by the source limits assumed, chain 2 of 2) above

[7] = molecular target: T7, murine GARP-proTGFβ1 complex (mouse; human, UniProt G3XA59 18-628; P01137 30-390, limits assumed); test: ELISA, purified hIgG4 titrated from about 0.002 to 100 nM, readout RLU, panel mGARP-TGFb1
T7 construct: As for m5; also called mGARP-proTGFβ1; LLC
T7 sequence (G3XA59 18-628 limits assumed, chain 1 of 2): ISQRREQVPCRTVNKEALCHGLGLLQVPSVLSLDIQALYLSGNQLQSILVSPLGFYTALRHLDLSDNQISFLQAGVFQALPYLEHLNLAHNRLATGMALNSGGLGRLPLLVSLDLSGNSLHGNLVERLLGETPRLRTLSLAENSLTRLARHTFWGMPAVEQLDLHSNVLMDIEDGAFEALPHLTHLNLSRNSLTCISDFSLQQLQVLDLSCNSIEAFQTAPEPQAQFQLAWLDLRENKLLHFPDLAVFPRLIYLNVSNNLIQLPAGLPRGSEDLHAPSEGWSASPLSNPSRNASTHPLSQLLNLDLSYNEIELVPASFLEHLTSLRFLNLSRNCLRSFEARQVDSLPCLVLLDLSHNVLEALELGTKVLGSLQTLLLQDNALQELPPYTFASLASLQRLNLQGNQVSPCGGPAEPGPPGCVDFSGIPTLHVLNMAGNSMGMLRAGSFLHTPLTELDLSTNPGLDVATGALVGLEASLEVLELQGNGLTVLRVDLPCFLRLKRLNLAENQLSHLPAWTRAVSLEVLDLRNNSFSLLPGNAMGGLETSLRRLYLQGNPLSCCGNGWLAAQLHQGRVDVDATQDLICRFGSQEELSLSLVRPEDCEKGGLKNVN
T7 sequence (P01137 30-390 limits assumed, chain 2 of 2): as the sequence (chain, as listed by the source limits assumed, chain 2 of 2) above

[8] = molecular target: endogenous LTBP-proTGFβ1 of LN229 cells (human); test: cell-based or functional assay
Chain of endogenous LTBP-proTGFβ1 of LN229 cells (human) (P01137 30-390): as the sequence (chain, as listed by the source limits assumed, chain 2 of 2) above

[9] = molecular target: T8, murine LTBP3-proTGFβ1 complex (mouse; human, UniProt Q61810 41-1245; P01137 30-390, limits assumed); test: ELISA, purified hIgG4 titrated from about 0.002 to 100 nM, readout RLU, panel mLTBP3-TGFb1
T8 construct: also called mLTBP3-proTGFβ1; LLC

[10] = molecular target: T5, human LTBP1-proTGFβ1 complex; test: SPR (Biacore), binding to Human LTBP1-ProTGFβ1, Fab at 0.625-10 nM
Experimental: as §2
Binding kinetics was evaluated by surface plasmon resonance using a BIACORE® 8K (GE) instrument. Biotinylated antigens were captured on a Biotin CAP chip and the Fab fragments of the antibodies were used as analytes. Sensorgrams for Fab binding at variable concentrations (0.6-10 nM) were globally fit to obtain the kinetic parameters.

[11] = molecular target: T7, murine GARP-proTGFβ1 complex; test: SPR Biacore; Fab
Experimental: as §1, §2

[12] = molecular target: T6, human GARP-proTGFβ1 complex; test: SPR Biacore; Fab
Experimental: as §1, §2

[13] = molecular target: T8, murine LTBP3-proTGFβ1 complex; test: SPR Biacore; Fab
Experimental: as §1, §2

[14] = molecular target: T3, human LTBP3-proTGFβ1 complex; test: SPR Biacore; Fab
Experimental: as §1, §2

[15] = molecular target: T4, murine LTBP1-proTGFβ1 complex; test: SPR Biacore; Fab
Experimental: as §1, §2

[16] = molecular target: T5, human LTBP1-proTGFβ1 complex; test: SPR Biacore; Fab
Experimental: as §1, §2

T1 sequence (Q86YC3 19-650 limits assumed, chain 1 of 2): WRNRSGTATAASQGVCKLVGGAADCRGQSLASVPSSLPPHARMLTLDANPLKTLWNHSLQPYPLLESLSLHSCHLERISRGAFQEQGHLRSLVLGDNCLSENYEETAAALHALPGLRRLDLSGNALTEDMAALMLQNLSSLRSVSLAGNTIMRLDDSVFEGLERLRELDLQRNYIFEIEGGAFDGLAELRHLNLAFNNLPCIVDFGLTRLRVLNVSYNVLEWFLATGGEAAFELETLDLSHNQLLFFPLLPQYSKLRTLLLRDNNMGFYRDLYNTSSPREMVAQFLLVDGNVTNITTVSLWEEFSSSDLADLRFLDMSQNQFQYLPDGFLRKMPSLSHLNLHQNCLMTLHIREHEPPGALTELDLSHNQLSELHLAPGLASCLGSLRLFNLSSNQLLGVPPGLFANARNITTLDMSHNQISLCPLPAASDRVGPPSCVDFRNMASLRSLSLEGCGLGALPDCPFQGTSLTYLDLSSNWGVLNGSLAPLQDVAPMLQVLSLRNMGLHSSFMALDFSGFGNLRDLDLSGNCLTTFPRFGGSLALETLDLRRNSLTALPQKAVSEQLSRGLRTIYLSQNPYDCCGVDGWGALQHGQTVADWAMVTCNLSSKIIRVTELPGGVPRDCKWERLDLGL
T1 sequence (P01137 30-390 limits assumed, chain 2 of 2): as the sequence (chain, as listed by the source limits assumed, chain 2 of 2) above

- Fold difference (affinity relative to Ref) [1]: 81 fold
- Kd [1]: 0.123 nM
- koff [1]: 0.000123 s⁻¹
- kon [1]: 1e+06 M⁻¹ s⁻¹
- Fold difference (affinity relative to Ref) [2]: 74 fold
- Kd [2]: 0.114 nM
- koff [2]: 0.000123 s⁻¹
- kon [2]: 1.08e+06 M⁻¹ s⁻¹
B1: Ab42 Fab (Fab, V domains shown)
VH: QVQLVESGGGVVQPGRSLRLSCAASGFTFRSYVMHWVRQAPGKGLEWVAVISHEGSLKYYADSVKGRFTISRDNSKNTLYLQMNSLRAEDTAVYYCARPRIAARRGGFGYWGQGTLVTVSS
VL: NFMLTQPHSVSESPGKTVTISCTRSSGNIDNNYVQWYQQRPGSSPTTVIYEDNQRPSGVPDRFSGSIDSSSNSASLTISGLKTEDEADYYCQSYDYDTQGVVFGGGTKLTVL

- EC50 (read off the curve) [3]: ~0.2 nM
- EC50 (read off the curve) [4]: ~0.2 nM
- EC50 (read off the curve) [5]: ~0.3 nM
- EC50 (read off the curve) [6]: ~0.3 nM
- EC50 (read off the curve) [7]: ~0.2 nM
- mAb IC50 (nM); cell-based potency assay [8]: 0.95 nM
- EC50 (read off the curve) [9]: ~0.2 nM
B2: Ab46 hIgG4 (antibody, V domains shown)
VH: EVQLLESGGGLVQPGGSLRLSCAASGFTFADYAMTWVRQAPGKGLEWVSAISGSGAATYFADSVKGRFTISRDNSKNTLYLQMNSLRAEDTAVYYCARVSSGHWDYDYWGQGTLVTVSS
VL: DIQLTQSPSSLSASVGDRVTITCRASQSISSYLNWYQQKPGKAPKLLIYAASGLESGVPSRFSGSGSGTDFTLTISSLQPEDFATYYCQQTYGVPLTFGGGTKVEIK
notes: hIgG4 immunoglobulin; also called Ab46 (mAb)

- t1/2 [10]: 131 min
- fAb IC50 (nM); cell-based potency assay [8]: 0.723 nM
- Fold difference (affinity relative to Ref) [11]: 69 fold
- Fold difference (affinity relative to Ref) [12]: 53 fold
- Fold difference (affinity relative to Ref) [13]: 91 fold
- Fold difference (affinity relative to Ref) [14]: 72 fold
- Fold difference (affinity relative to Ref) [1]: 118 fold
- Fold difference (affinity relative to Ref) [15]: 123 fold
- Fold difference (affinity relative to Ref) [2]: 95 fold
- Fold difference (affinity relative to Ref) [16]: 134 fold
B3: Ab46 Fab (Fab, V domains shown)
VH: B2 VH
VL: B2 VL
notes: Fab fragment
